Test [1] has as its target T1, purified recombinant CSPα^WT (E. coli, GST removed by TEV protease) (Homo sapiens (Human)), Q9H3Z4.
T1 chain: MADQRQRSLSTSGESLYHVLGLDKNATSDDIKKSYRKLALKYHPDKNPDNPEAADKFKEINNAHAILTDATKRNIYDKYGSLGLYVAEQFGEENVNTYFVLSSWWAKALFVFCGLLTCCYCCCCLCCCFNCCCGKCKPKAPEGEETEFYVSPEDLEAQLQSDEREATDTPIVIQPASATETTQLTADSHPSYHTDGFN
In words: self-oligomerization of purified recombinant protein, SDS-PAGE and quantitative anti-CSPα immunoblot. The settings on record: remark: other sources report otherwise. A general note: Immunoblotting shows a protein as a band on a membrane.

The target of test [2] is T2, purified recombinant CSPα^L115R (E. coli, GST removed by TEV protease) (Homo sapiens (Human)), Q9H3Z4.
T2 chain: T1 chain with L115R
The description is as above. The settings on record: remark: other sources report otherwise.

The values below come from patent publication US20210290602A1.

Changes are numbered by the printed parent chain. Names may count otherwise.

B1: purified recombinant CSPα^WT (E. coli, GST removed by TEV protease), Q9H3Z4 1-198 (protein)
chain: T1 chain
modifications: here or on the partner: Fe-S clusters bound at the Cys-string of the E. coli protein. No palmitoylation in bacteria.; Fe-S clusters bound at the Cys-string of the E. coli protein. No palmitoylation in bacteria.
On to B1, for which the percent of protein existing as oligomers in test [1] is 75%.

B2: purified recombinant CSPα^L115R (E. coli, GST removed by TEV protease), Q9H3Z4 1-198 (protein)
chain: T1 chain with L115R
modifications: here or on the partner: Fe-S clusters bound at the Cys-string of the E. coli protein.; Fe-S clusters bound at the Cys-string of the E. coli protein.
B2: in test [2], the percent of protein existing as oligomers is 75%.
